One block for each molecule: values may come before it.
Columns and labels:
[1] = target: T1, Aga-BC7050 (Heyndrickxia coagulans, UniProt A0A8B4BWV9); test: pNPGal hydrolysis with added sugar; assay type: biochemical; settings: substrate pNPGal; McIlvaine buffer; galactose is also the reaction product
T1 construct: GH36 homodimer, 168 kDa by gel filtration; predicted nucleophile Asp477, acid/base Asp547
T1 sequence (A0A8B4BWV9 1-730): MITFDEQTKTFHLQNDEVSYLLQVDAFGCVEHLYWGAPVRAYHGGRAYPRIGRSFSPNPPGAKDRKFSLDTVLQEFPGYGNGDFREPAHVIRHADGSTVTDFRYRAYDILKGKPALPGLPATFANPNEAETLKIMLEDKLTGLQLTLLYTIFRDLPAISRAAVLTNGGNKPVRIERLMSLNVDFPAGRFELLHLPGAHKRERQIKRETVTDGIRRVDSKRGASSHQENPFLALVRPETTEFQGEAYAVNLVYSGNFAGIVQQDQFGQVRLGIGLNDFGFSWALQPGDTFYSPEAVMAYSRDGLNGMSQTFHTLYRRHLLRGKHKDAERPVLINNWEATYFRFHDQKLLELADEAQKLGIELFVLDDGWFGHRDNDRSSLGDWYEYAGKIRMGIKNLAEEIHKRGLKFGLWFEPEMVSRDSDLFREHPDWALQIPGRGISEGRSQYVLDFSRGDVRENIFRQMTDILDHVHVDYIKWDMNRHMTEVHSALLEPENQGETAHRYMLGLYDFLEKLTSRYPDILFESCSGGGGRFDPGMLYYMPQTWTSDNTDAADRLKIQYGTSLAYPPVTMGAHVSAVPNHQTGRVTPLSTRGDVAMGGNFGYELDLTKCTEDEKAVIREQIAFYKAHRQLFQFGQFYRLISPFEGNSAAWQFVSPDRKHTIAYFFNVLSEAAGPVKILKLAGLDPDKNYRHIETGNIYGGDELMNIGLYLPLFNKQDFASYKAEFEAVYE

[2] = target: α-galactosidase Aga-BC7050 from Bacillus coagulans ATCC 7050 (Bacillus coagulans ATCC 7050); test: SEC; analytical gel filtration, Superdex 200 Increase 10/300 GL, 10 mM phosphate buffer, 0.14 M NaCl, pH 7.4, 0.75 mL/min, room temperature; calibrated with albumin, lactate dehydrogenase, catalase, ferritin, thyroglobulin; native mass compared with SDS-PAGE mass
[3] = substrate: OC[C@H]1O[C@H](OC[C@H]2O[C@H](O[C@]3(CO)O[C@H](CO)[C@@H](O)[C@@H]3O)[C@H](O)[C@@H](O)[C@@H]2O)[C@H](O)[C@@H](O)[C@H]1O; test: purified protein; assay type: biochemical, Heyndrickxia coagulans; settings: McIlvaine buffer pH 6.0, 55 °C
[4] = substrate: O=[N+]([O-])c1ccc(O[C@H]2O[C@H](CO)[C@H](O)[C@H](O)[C@H]2O)cc1; test: purified protein; assay type: biochemical, Heyndrickxia coagulans; settings: McIlvaine buffer pH 6.0, 55 °C

- % decrease of activity at 100 mM [1]: 24.4%
Molecule: OC[C@H]1OC(O)[C@H](O)[C@@H](O)[C@H]1O (stereo partly shown) [galactose]

- stoichiometry N [2]: 2
Molecule: α-galactosidase Aga-BC7050 from Bacillus coagulans ATCC 7050 (enzyme)

B1: Aga-BC7050 (Heyndrickxia coagulans DSM 1 = ATCC 7050) (protein)
chain: T1 sequence (A0A8B4BWV9 1-730)
notes: GH36 homodimer, 168 kDa by gel filtration; predicted nucleophile Asp477, acid/base Asp547
- Km [3]: 53.7 ± 0.9 mM
- Vmax [3]: 1140 µmol/min/mg
- kcat [3]: 1610 ± 53.4 s⁻¹
- kcat/Km [3]: 30500 M⁻¹ s⁻¹
- Km [4]: 1.1 ± 0.2 mM
- Vmax [4]: 655 µmol/min/mg
- kcat [4]: 942 ± 73.9 s⁻¹
- kcat/Km [4]: 844000 M⁻¹ s⁻¹
